In US20180334496A1:

Biological target: Recombinant His-tagged FcγRIIb (UniProt P31994)
Experiment: ELISA, antibody coated at 2 uM, His-tagged FcγRIIb titrated 1:3 from 2 uM, HRP anti-His; the concentration is that of the receptor

Chain of Recombinant His-tagged FcγRIIb (P31994 46-217 limits assumed): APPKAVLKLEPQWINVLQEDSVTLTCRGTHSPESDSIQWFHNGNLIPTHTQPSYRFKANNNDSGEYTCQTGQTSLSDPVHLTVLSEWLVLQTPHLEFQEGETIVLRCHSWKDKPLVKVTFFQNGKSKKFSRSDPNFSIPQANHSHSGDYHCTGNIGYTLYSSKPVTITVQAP

EC50 (read off the curve): 70 nM
Substance: Avastin (antibody)
